The text below walks through data of PMC10164062 (Cancer discovery, 2023).

The data set deals with the molecule itself. In words: cross-linking.

B1: p53R245W (mouse, DNA binding domain mutant) (natural protein, mouse (endogenous in MEFs), UniProt P02340 1-390, looked up)
chain: MTAMEESQSDISLELPLSQETFSGLWKLLPPEDILPSPHCMDDLLLPQDVEEFFEGPSEALRVSGAPAAQDPVTETPGPVAPAPATPWPLSSFVPSQKTYQGNYGFHLGFLQSGTAKSVMCTYSPPLNKLFCQLAKTCPVQLWVSATPPAGSRVRAMAIYKKSQHMTEVVRRCPHHERCSDGDGLAPPQHLIRVEGNLYPEYLEDRQTFRHSVVVPYEPPEAGSEYTTIHYKYMCNSSCMGGMNWRPILTIITLEDSSGNLLGRDSFEVRVCACPGRDRRTEEENFRKKEVLCPELPPGSAKRALPTCTSASPPQKKKPLDGEYFTLKIRGRKRFEMFRELNEALELKDAHATEESGDSRAHSSYLKTKKGQSTSRHKKTMVKKVGPDSD
In the case of B1, the “stoichiometry N” value was determined as 4.
